The target in this assay is recombinant transferrin receptor ectodomain (UniProt Q62351). Description: competition: 8D3 pre-incubated with 2 µM soluble rTfR ectodomain, then binding to live bEnd.3 cells at 4° C., IRDye detection.
Chain of recombinant transferrin receptor ectodomain (Q62351 89-763 limits assumed): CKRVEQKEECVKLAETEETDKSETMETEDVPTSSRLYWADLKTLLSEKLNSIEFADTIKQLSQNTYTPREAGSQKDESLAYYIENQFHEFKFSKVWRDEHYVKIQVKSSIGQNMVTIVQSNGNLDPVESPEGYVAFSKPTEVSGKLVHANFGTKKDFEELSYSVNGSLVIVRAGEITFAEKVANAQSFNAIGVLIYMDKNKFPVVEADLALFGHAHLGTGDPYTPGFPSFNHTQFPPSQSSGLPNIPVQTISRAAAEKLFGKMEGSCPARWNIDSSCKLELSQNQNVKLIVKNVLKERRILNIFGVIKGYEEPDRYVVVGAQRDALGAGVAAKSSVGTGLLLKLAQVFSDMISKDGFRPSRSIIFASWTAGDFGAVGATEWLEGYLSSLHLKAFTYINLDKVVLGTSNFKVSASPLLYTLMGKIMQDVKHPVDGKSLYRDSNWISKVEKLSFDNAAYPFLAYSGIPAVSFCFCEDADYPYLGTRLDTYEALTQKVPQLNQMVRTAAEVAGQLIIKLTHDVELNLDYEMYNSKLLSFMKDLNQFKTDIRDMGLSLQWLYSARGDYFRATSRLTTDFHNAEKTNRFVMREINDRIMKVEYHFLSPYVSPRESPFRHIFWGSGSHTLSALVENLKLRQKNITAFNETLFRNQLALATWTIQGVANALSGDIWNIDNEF

B1: anti-transferrin receptor antibody (8D3) (antibody, from another filing, V domains shown)
VH: EVQLVESGGGLVQPGNSLTLSCVASGFTFSNYGMHWIRQAPKKGLEWIAMIYYDSSKMNYADTVKGRFTISRDNSKNTLYLEMNSLRSEDTAMYYCAVPTSHYVVDVWGQGVSVTVSS
VL: DIQMTQSPASLSASLEEIVTITCQASQDIGNWLAWYQQKPGKSPQLLIYGATSLADGVPSRFSGSRSGTQFSLKISRVQVEDIGIYYCLQAYNTPWTFGGGTKLELK
With B1, the MBEC binding signal with rTfR competition, percent of the non-competition signal stood at 20%.
